# T1: MMP-7 (matrilysin) (Homo sapiens, UniProt P09237)
# T1 sequence (P09237 95-267): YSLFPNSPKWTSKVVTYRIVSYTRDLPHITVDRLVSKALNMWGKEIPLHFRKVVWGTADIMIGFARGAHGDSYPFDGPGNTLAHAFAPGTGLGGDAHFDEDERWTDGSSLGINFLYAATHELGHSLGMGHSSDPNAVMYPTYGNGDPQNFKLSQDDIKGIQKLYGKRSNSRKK
# T2: Pro-MMP-2 (Homo sapiens, UniProt P08253)
# T2 sequence (P08253 30-660 limits assumed): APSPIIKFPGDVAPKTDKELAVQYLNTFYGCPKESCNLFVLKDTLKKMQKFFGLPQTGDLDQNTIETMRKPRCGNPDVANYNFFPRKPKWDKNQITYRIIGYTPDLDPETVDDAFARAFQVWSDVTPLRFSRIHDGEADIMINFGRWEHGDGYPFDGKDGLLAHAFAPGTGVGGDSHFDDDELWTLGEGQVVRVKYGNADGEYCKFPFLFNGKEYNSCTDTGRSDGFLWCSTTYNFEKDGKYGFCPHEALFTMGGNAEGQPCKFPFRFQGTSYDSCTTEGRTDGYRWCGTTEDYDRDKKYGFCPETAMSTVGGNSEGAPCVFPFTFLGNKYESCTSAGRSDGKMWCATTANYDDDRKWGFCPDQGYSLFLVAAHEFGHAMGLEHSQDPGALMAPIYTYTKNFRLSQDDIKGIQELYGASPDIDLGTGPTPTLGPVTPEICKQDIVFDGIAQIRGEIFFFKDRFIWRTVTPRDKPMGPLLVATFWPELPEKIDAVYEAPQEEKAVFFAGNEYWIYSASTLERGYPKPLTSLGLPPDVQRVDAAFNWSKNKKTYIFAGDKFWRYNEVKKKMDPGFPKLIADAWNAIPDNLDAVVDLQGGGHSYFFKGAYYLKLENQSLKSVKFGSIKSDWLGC
# B1: 6C6: monoclonal antibody, IgG2a, raised against the hapten Imisdp; MMP-2 and MMP-9 inhibitory; SEQ ID NO: 1 (protein)
# chain: CMETTQTPLSLPVSLGDQASISCRSSQSIVHSNGNTFLEWYLQKPGQSPKLLIYKVSNCRFSGVPDRFSGSGSGTDFTLKISRVEAEDLGVYYCFQASHVPPTFGGG
# modifications: 6c6 mAb light chain
# How the values were obtained:
# MMP-7 (matrilysin) = target: T1, MMP-7 (matrilysin); test: inhibition assay with fluorogenic peptide substrate, MMP-7; type: biochemical; settings: mAb concentrations of up to 30 μM
# Description: To explore the selectivity of 6C6, its reactivity was tested toward different matrix metalloproteinase subgroups including matrilysin (MMP7), membrane type MMP (MT1-MMP) and related disintegrin (ADAMs) tumor necrosis factor-α-converting enzyme (TACE). The core structures of these enzymes, are highly similar, varying mostly within the peripheral loops. Specifically the zinc-histidine scaffold is well conserved, showing a consensus helix followed by a loop that serves as a scaffold for the three histidine residues that coordinate the catalytic zinc ion (FIG. 13).
# Similar inhibition assays were performed with appropriate flourogenic peptide substrates. […] Sequence variations, mostly within the peripheral loops dictate differences in the extent of exposure of the zinc-histidine motif, in the shape of the active site and its surface electrostatic may account for this selective inhibitory pattern.
# active MMP-9 = target: T3, active MMP-9 (Mus musculus, UniProt P41245); test: co-purification of active MMP-9 with mAb from mice ascites fluid (western blot); type: binding; settings: co-purified from mice ascites fluid, about 82 KDa band in western blot
# T3 construct: corresponding to active MMP9 lacking the pro-domain was identified; from tissue; host or cells: mouse ascites fluid
# T3 sequence (P41245 108-730): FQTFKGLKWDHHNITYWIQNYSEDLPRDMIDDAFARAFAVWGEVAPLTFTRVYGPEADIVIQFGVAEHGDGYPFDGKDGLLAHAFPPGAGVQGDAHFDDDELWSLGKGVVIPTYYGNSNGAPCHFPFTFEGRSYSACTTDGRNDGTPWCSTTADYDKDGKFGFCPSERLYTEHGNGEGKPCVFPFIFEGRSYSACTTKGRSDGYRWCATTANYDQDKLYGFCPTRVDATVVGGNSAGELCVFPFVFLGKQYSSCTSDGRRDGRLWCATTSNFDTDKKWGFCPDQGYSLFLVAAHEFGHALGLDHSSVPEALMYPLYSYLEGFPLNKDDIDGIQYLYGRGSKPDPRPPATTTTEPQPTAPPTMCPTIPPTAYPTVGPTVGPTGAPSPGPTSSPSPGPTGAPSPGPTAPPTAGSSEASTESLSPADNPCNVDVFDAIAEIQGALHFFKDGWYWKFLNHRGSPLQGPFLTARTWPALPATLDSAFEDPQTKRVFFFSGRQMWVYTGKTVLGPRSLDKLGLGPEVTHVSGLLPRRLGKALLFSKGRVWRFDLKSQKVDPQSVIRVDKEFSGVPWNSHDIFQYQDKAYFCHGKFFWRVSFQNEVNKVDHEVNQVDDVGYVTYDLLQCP
# Description: FIGS. 11A-11D are photographs and models illustrating that 6C6 binds only the active conformation of MMP9 and MMP2. FIG. 11A: Detection of active MMP9 that co-purified with 6C6 from mice ascites fluid. MAb (10 μg) purified from mice ascites fluid containing MMP9, was subjected to western blot (WB) analysis using commercial anti MMP9 antibody. Non related IgG mAb that has been purified in the same manner, served as negative control (MAb Control). Human ProMMP9 purified from Hilla transfected cells served as molecular weight marker to discern the active species. Purification was done by affinity chromatography using protein G beads which bind mAb via its constant domain, leaving the antigen binding site free to interact with the antigen. FIGS. 11B,C: 6C6 mAb immobilized to protein A beads was analyzed for its ability to pull down ProMMP2, ProMMP9, or MMP2 catalytic fragment (lacking the hemopexin and pro domains) from solution. […]
# Selected hybridomas were subcloned twice by limited dilutions, followed by large-scale production by ascites tumors primed with pristine (2,6,10,14 tetrametylpentadecane) injected BALB/c mice. […] The elution peak was analyzed by SDS-PAGE.
# Purified antibodies were separated in 8% SDS-polyacrylamide gel, transferred to NC membranes (Bio-Rad), and subsequently subjected to immunoblot analysis using anti MMP-9 antibody (Sigma). […] Signals were detected using ECL (Pierce).
# Pro-MMP-2 = target: T2, Pro-MMP-2; type: binding
molecule,measurement,setting,value
B1,inhibition of MMP-7,MMP-7 (matrilysin),neither MMP-7 nor TACE were inhibited to any measurable extent
same,in vivo complex with active MMP-9,active MMP-9,formed a specific in vivo complex
same,binding to Pro-MMP-2,Pro-MMP-2,did not bind

# Reference: patent US9902783B2, “Antibodies and pharmaceutical compositions containing same useful for inhibiting activity of metalloproteins” (Yeda Research and Development Co. Ltd., priority 2007, dated 2018)
